# Source: article PMC2575614
# Target: HLA-B*2705 heavy chain with the C-terminal sv5 epitope tag (human)
# Assay: two-dimensional gel electrophoresis (non-reducing) and immunoblot; 24-hour stimulated KG-1.B27sv5 cell lysates resolved under non-reducing conditions, immunoblot with HC10 or pK
substance,measurement,value
HLA-B*2705 heavy chain with the C-terminal sv5 epitope tag (natural protein),stoichiometry N,2
